Measured values reported in patent US20130079286A1 (Pieris, published 2013).

Target: T1, MBP-Aβ40 fusion protein
T1 construct: the entry may be a nucleic acid; Biotin-labelled in the capture ELISA, unlabeled in the direct ELISA and SPR; also called MBP-Abeta40
Assay: direct ELISA: MBP-Aβ40 coated, mutein titrated, detected via Strep-tag II
Method: The Aβ targets Trx-Aβ28 and MBP-Aβ40 as well as the control protein maltose binding protein (MBP) were immobilized at 2 μM in PBS over night. Bound Lcn2 muteins were detected via their Strep-tag II using Streptavidin/AP followed by a chromogenic reaction with pNPP. As a control, the binding of wild-type (wt) lipocalin was tested. The data were fitted to a monovalent binding model.
Alternatively, for a “direct” ELISA, 2 μM unlabeled Aβ40 target from Example 2 was adsorbed onto a 96-well MaxiSorp polystyrene microliter plate (Nunc, Langenselbold, Germany) and incubated with the purified Lcn2 mutein, which was detected via the Strep-tag II using a 1:1500 dilution of Streptavidin/AP conjugate (GE Healthcare UK Ltd, Buckinghamshire, UK). As a control, 2 μM MBP from Example 2 was adsorbed onto the ELISA plate. Absorption at 405 nm was measured in a SpectraMax 250 reader (Molecular Devices, Sunnyvale, USA).

B1: Lcn2 mutein S1-A4 (designed binder)
chain: QDSTSDLIPAPPLSKVPLQQNFQDNQFHGKWYVVGVAGNYTLREDKDPLKMYATIYELKEDKSYNVTSVGFRLKKCNYKIRTFVPGSQPGEFTLGIIKSQPGMTSYLVRVVSTNYNQHAMVFFKTVGQNREMFNITLYGRTKELTSELKENFIRFSKSLGLPENHIVFPVPIDQCIDG
**Q.** How did the Kd turn out when B1 was run?
**A.** Its Kd is 149 nM.
